Assay results reported in patent US20240076389A1 (NATIONAL RESEARCH COUNCIL OF CANADA, published 2024).

Legend:
[1] = target: T1, recombinant cynomolgus AXL extracellular domain (cynomolgus); assay: SPR, VHH-Fc captured, AXL ECD flowed, single-concentration kinetics (estimate)
T1 construct: range 1-449; also called Cyno AXL; cyno AXL ECD
Method: (§1) For VH Hs and VHH-Fcs, binding to human and cynomolgus AXL ECD was assessed using either a Biacore T200 instrument or a Biacore 3000 instrument. Either human AXL ECD or anti-human Fc antibody was immobilized on a research-grade CM5 series S sensor chip (T200, rhAXL ECD) or a C1 sensor chip (3000, anti-human Fc) using amine coupling in acetate buffer. VHH-Fcs were captured on anti-human Fc surfaces. Either monomeric VHHs (for rhAXL ECD surfaces) or human and cyno AXL ECD (for VHH-Fc surfaces) were flowed over the surfaces at different concentration ranges. Running buffers were HBS-EP (3000) and HBS-EP+(T200). Flow rates were 10-40 ul/min. All binding studies were performed at 25° C. Surfaces were regenerated using 10 mM glycine, pH 1.5.

[2] = target: T2, recombinant human AXL extracellular domain, C-terminally His8-tagged (rhAXL-ECD) (human, UniProt P30530 26-451); assay: as above
T2 construct: Made in CHO cells; also called (rh)AXL-ECD His8; human AXL ECD
T2 sequence: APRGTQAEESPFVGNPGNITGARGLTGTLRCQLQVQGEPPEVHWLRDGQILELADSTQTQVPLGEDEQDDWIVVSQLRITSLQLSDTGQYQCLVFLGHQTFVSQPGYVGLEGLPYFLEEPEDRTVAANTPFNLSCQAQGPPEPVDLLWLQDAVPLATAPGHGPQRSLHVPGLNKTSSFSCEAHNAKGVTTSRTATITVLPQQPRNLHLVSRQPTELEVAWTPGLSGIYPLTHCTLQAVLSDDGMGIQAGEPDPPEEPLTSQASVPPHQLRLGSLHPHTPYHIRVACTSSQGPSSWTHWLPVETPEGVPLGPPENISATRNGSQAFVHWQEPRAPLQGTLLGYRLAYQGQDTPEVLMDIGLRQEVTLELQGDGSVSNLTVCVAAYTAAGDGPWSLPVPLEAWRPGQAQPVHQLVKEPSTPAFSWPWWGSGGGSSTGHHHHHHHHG
Method: as §1

[3] = target: T2, recombinant human AXL extracellular …; assay: ELISA on coated AXL ECD (100 ng/well), VHH-Fc, HRP-protein A
Method: ELISA. ELISAs against human, cyno and mouse AXL ECDs were conducted by immobilizing 100 ng of each protein in wells of Nunc MaxiSorp microplates overnight. Human AXL (aa 1-451) and cyno AXL (aa 1-449) were produced recombinantly as described in Example 10. Mouse AXL was purchased from Sino (cat. 51026-M08H). The next day, plates were blocked with 5% (w/v) dried milk in PBS. Murine mAbs (either hybridoma- or recombinantly-produced) or VHH-Fcs were diluted in PBS containing 1% BSA and 0.1% Tween-20 and added to wells for 2 hours at room temperature. Wells were washed 5× with PBS containing 0.1% Tween-20, then HRP-labeled protein A (diluted 1:1000 in PBS containing 1% BSA and 0.1% Tween™-20) was added to wells for 1 hour at room temperature. Wells were washed again 5× with PBS/0.1% Tween-20 and developed using TMB substrate. Absorbance was measured at 450 nm. As a positive control for mouse AXL binding, a commercial anti-mouse AXL mAb (clone 175128, R&D Systems MAB8541, rat IgG2A) was used and detected with donkey […] secondary antibody.

[4] = target: T3, human AXL expressed on the cell surface of tumor cell lines (human, UniProt P30530 26-894); assay: FACS on NCI-H292 cells, apparent Kd
T3 construct: whole, on cells; also called cell surface-expressed AXL; cell-based AXL
T3 sequence (looked up): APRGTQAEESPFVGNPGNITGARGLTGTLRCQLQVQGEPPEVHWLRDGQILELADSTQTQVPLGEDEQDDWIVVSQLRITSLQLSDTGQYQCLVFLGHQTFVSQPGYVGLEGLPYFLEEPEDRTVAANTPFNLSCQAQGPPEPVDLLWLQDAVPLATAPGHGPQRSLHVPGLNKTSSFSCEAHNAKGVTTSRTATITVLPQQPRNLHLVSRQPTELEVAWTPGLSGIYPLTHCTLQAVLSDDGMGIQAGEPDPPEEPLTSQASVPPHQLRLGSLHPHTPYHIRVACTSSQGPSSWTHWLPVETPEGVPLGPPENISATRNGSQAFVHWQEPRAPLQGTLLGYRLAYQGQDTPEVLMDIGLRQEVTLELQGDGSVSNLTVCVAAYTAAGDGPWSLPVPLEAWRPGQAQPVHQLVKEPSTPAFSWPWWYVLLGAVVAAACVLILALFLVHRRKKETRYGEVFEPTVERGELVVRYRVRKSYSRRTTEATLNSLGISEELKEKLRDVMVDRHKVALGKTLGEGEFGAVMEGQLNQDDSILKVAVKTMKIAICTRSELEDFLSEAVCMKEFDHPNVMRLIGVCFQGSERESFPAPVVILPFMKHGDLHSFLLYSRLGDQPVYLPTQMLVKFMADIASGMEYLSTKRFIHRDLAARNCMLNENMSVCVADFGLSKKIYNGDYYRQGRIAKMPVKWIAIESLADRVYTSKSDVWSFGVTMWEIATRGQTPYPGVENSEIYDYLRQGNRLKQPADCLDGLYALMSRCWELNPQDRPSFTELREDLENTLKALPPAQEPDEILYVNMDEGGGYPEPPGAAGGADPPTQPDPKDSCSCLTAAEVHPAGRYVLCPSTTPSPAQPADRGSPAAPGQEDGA
Method: (§2) FACS binding assay. Adherent cells were dissociated with non-enzymatic Sigma Cell Dissociation Solution (Cat. No. C5789). Cells suspensions were added to polypropylene, V-bottom 96-well plates and incubated for 2 hours on ice with primary antibodies at concentrations ranging from 100 nM to 0.001 nM or at a single dose of 100 nM (for the non-specific control). After incubation and washes, cells were incubated with fluorescently labeled secondary antibody (Alexa Fluor® 488 anti-human IgG from Jackson Cat. No 709-546-098) for 1 hour on ice, then washed. Cell viability was determined using Fixable viability dye 450 (20 min on ice). Stained cells were fixed in 1% formaldehyde at 4° C. and stored at 4° C. until acquisition which was performed the next day.
(§3) Binding of recombinant chimeric Abs to three cell lines was assessed by FACS as described above. The apparent Bmax and Kd determination is shown below in Table 14.

[5] = target: T3, human AXL expressed on the cell surface …; assay: FACS on MDA-MB-231 luciferase cells, apparent Kd
Method: as §2, §3

B1: NRC-sdAb001-Fc (VHH-human IgG1 Fc fusion) (Fc fusion)
chain: QVKLEESGGGLVQAGGSLRLSCTASASISSFDIMGWYRQAPGKQRELVAAITTLDIANYRDSVKGRFTISRDNAKNTVYLQMDSLKPEDTARYHCAAFQSDQNYWGQGTQVTVSS
notes: VHH fused N-terminally to human IgG1 Fc, made in HEK293 cells; also called NRC-sdAb0001-Fc; NRC-sdAb001-hIgG1; not shown: human IgG1 Fc
[1]
  Kd: 8 nM
  koff: 0.0072 s⁻¹
  kon: 920000 M⁻¹ s⁻¹
[2]
  Kd: 6 nM
  koff: 0.0072 s⁻¹
  kon: 1.3e+06 M⁻¹ s⁻¹
[3]
  EC50: 1 nM

B2: hFC-F107-10G1 (antibody, human IgG1, kappa, V domains shown)
VH: EVNLVESGGGVVKPGASLKLSCEASGFTFSNYGMSWVRQTSDKRLEWVASISGGGGRTYYLDNVKGRFIISRENAKNTLYLQMSSLKSEDTALFYCARGARASYFAMDYWGQGSSVTVSS
VL: VIVMTQSHKFMSTSVGDRVSITCKASQDVTTAVAWYQQKPGQSPKLLIYWASTRHTGVPDRFTGSGSGTDYSLTISNVQTEDLAFYYCQQHFTTPLTFGAGTKLELKR
notes: Chimeric mAb, human IgG1 / human kappa constant regions; also called mAb F107-10G1
[4]
  Kd: 0.0708 nM
[5]
  Kd: 0.101 nM
